Data as given in patent US20030232051A1.
Values belong to the substance of their own block, whether it stands above or below them.

Assays:
Experiment in all cases: cell-based or functional assay
[1] = target: HA-2DL4 (RY-GT) mutant (human) (UniProt Q99706)
[2] = target: HA-2DL4 (epitope-tagged 2DL4) (human) (UniProt Q99706)
[3] = target: 2B4 (CD244) (on human NK cells) (human) (UniProt Q9BZW8)
[4] = target: CD16 (on human NK cells) (human) (UniProt P08637)
Sequence of CD16 (on human NK cells) (human) (P08637 17-254): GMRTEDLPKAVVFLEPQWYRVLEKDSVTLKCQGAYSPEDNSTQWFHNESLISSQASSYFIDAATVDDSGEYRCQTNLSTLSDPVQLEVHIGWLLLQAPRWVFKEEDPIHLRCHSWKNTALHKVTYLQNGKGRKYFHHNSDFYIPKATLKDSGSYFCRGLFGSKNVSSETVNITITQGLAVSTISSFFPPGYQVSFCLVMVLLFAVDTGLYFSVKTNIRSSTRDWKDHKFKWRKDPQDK

Sequence of 2B4 (CD244) (on human NK cells) (human) (Q9BZW8 22-370): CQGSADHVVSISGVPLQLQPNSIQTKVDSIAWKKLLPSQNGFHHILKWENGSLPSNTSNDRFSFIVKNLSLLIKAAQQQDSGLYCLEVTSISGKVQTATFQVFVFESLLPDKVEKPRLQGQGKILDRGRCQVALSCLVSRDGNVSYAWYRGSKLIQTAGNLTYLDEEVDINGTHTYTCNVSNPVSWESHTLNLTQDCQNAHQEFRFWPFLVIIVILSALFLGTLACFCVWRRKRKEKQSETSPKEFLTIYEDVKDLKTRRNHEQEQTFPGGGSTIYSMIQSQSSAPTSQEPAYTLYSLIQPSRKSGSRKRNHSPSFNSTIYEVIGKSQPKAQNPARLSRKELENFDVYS
Sequence of HA-2DL4 (epitope-tagged 2DL4) (human) (Q99706 24-377): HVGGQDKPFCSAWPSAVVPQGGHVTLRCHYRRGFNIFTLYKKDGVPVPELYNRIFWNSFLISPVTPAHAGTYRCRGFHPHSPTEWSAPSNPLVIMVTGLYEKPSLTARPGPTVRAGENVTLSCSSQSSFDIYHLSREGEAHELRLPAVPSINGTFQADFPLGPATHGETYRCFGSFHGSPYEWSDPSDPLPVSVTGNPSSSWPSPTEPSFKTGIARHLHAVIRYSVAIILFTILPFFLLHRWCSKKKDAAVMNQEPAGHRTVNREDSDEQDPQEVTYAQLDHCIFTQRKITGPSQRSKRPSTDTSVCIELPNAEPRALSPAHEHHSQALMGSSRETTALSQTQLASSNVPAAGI
Sequence of HA-2DL4 (RY-GT) mutant (human) (Q99706 24-377, change not shown): as the sequence (Q99706 24-377) above

Substance: anti-HA mAb 16B12 (IgG1; Covance) (antibody)
- fold activation of lysis of P815 cells by vaccinia-infected IL-2-activated NK cells (fold over control Ig) [1]: 0.56
- fold activation of lysis of P815 cells by vaccinia-infected IL-2-activated NK cells (fold over control Ig) [2]: 2.9

- increase in IFN-gamma release by IL-2-activated NK cells with P815 cells over that induced by control IgG (fold over control IgG) [3]: 1.55
- increase in IFN-gamma release by resting NK cells with P815 cells over control IgG (fold over control IgG) [3]: 2.1
- ratio of lysis of P815 cells by IL-2-activated NK cells over that obtained with control Ig (fold over control Ig) [3]: 3.3
- ratio of lysis of P815 cells by resting NK cells over that obtained with control Ig (fold over control Ig) [3]: 3.1
Substance: anti-2B4 mAb C1.7 (IgG1; Beckman Coulter) (antibody)

- increase in IFN-gamma release by IL-2-activated NK cells with P815 cells over that induced by control IgG (fold over control IgG) [4]: 20.1
- increase in IFN-gamma release by resting NK cells with P815 cells over control IgG (fold over control IgG) [4]: 4.2
- ratio of lysis of P815 cells by IL-2-activated NK cells over that obtained with control Ig (fold over control Ig) [4]: 4.8
- ratio of lysis of P815 cells by resting NK cells over that obtained with control Ig (fold over control Ig) [4]: 4.9
Substance: anti-CD16 mAb 3G8 (IgG1; Medarex) (antibody)
